Anticoagulant activity in the APTT test (prolongation of the clotting time in seconds), half-maximal inhibition in the APTT test and Kd data for 2 molecules are collected here from patent publication US6284871.

The target of test [1] is purified human Factor IXa (human) (UniProt P00740).
Test [2] deals with non-activated Factor IX (Homo sapiens (Human)) (UniProt P00740).
Test [3] addresses purified human Factor IXa (human) (UniProt P00740). The source holds these as a separate data set.
The target is the same in test [4]. As to the kind of experiment: equilibrium binding in solution (method of Friguet): 30 nM Factor IXa with varying peptide, non-bound Factor IXa measured on immobilized peptide.
The target of test [5] is non-activated Factor IX (Homo sapiens (Human)) (UniProt P00740). The experiment in a line: equilibrium binding in solution (method of Friguet): 30 nM Factor IX with varying peptide, non-bound Factor IX measured on immobilized peptide.

“complete Factor VIII light chain (residues 1649-2332) (from UniProt P00451)” came in with an Anticoagulant activity in the APTT test (prolongation of the clotting time in seconds) in test [1] of 8.6 s.

Consider KNFVKPNETKTYFWK [compound … (SEQ ID NO: 3), synthetic peptide of Factor VIII A3-domain residues 1804-1818], for which the half-maximal inhibition in the APTT test in test [2] and in test [3] was 0.3 mM throughout. The Kd (in general, the constant that tells how readily two partners part at equilibrium) in test [4] turned out to be 200 µM; in test [5] it was 230 µM.
